Results as given in the DeepSol protein solubility set.

Test: soluble on expression in E. coli; label from the status in PepcDB or PDB records

Row | Sequence | soluble on expression in E. coli
1 | MSENLTMSELMDSFELKHFHKGEIVKGKVISVKNDEIIVNIGHFADGVVPRNEISNDKNFDINSINVDDDIFVMVLSGDDGEGNVLLSKKRADAIKVCDDLKEAFEEEKSIKVSLKEVVKGGIVGDFNGLRVFMPASQCAGRRIENLEELVGKTLEVRVIEFNKENRKVVVSRRVIDEEIRNNEKKALWSSIKEGEKRKGKVTRLAKFGAFVDIGGVEGLVHLSDMSWSRVHKPEEVVSVGDEVEVFVSEVDMDRERIALSLKDVIKNPWETLEGLKVGNVVLGKVTNFIKVGAFVEVLPGIEGLVHISEITDENIAKPSDILELGQEVKVKILNIDDENKKMSLSIKDAVETSNEYMQYNDEEEGYSLADLFKGLNLLEHHHHHH | soluble
2 | ELHPRTGRLVSLSACGRTARRQQPGQEFNHGLVLSREPLRDGRVFTVRIDRKVNSWSGSIEIGVTALDPSVLDFPSSATGLKGGSWVVSGCSVLRDGRSVLEEYGQDLDQLGEGDRVGVERTVAGELRLWVNGRDCGVAATGLPPRVWAVVDLYGKCTQITVL | soluble
3 | MVGYSSKLIFVSMITRHGDRAPFANIENANYSWGTELSELTPIGMNQEYNLGLQLRKRYIDKFGLLPEHYVDQSIYVLSSHTNRTVVSAQSLLMGLYPAGTGPLIGDGDPAIKDRFQPIPIMTLSADSRLIQFPYEQYLAVLKKYVYNSPEWQNKTKEAAPNFAKWQQILGNRISGLNDVITVGDVLIVAQAHGKPLPKGLSQEDADQIIALTDWGLAQQFKSQKVSYIMGGKLTNRMIEDLNNAVNGKSKYKMTYYSGHALTLLEVMGTLGVPLDTAPGYASNLEMELYKDGDIYTVKLRYNGKYVKLPIMDKNNSCSLDALNKYMQSINEKFQKHHHHHH | soluble
4 | MSLNPPYTIVFALYPGVTQLDFTGPLEFLSKLPHARCVLASSRGEDIRADGGIVFADIARLGAIERCDLLLVPGGLGTIEAMEDAELLAQLRRLAASADYVSSVCTGSLLLGAAGLLKGRRAACHWAWLDSLAAFGAQPCPDRVVVDGKLISGGGVTAGIDMALTLMAEIAGPQFAQTAQLTLEYAEGHHHHHH | not soluble
5 | MGSDKIHHHHHHMGYRTLKSIFHEHNESKMKEEYTKRFNSLASFNTNINIIPMENGKKVNDLEYPLFFMVTKNLSKKQELISINSRKIDRALNSLPYAAREQYFNDLLIDELQSTNEIENVFSTKQEIAHALNNQASEFLKFRGLVDQYKEIELNKKIKVDNVRDIRAIYDKLVSNEINEQDKLDGELFRKNFVGVHDGSTNKYIHVGLQPETKIVEYIGEMLTFLKYFDAPQPFKIMASHYLFEYIHPFYDGNGRVGRFIIAKLLSDYYDNYTALTFSYVINRNKSKYYKAFMTASNHLNCGDLTEFIDTMLELLIAGQERILDELIPKMDATEKLTLYLTSHYKQIDYEFLYLLSMDKLFGNKRNRLTLIDLENILGVGRVKINNTIKKYDNYLVKIKSRPIIYEISDEFLNSIIK | not soluble
6 | QQEYMKVGKFSPESNRSRWLVTRGATMTTKDTTRNMTMNTNLGGYQVLEIFRKLETPEAVTAFEGLSIPEPGLEPRFCVREGEQEVPVTTRYTDEAFWQVFDFSFVAGKHYTEADARSNIAVAVITDRLARRFFGSSSEAVGRQALINGRKYTVCGVVRHVTPFCDFAYGDVWMPVFRLYEERVKNNLFSRFNVICLAKSPKDFDAIKEEVGALTAKCNSVQEKFNISFPGQPADQFTTMHRKFHRDDTEPLEYRRR | not soluble
7 | YTEEELRVLLAESYKSGEIRKSELKYMNNIFTFDKRMAKEIMVPRNEMVSLSLDEDSISNLQETVKQTKYTRYPVVREDKDNVIGVINMKEVLFSMLTKDFSIKKHQIEPFVQPVIHVIETIPIYKLLLKMQKERTHMAILIDEYGGTSGLVTVEDIIEEIVGEIRDEFDADEVPHIRELGKDHYLLNAKLLISDVNSLLGTDLSE | soluble
8 | MSLAPSNSLEICGDGVKNPTTFTRAQLEDMPQYQQVYSSINTWPSKKWYVGKGVHLSELLSLVGIKDDARLLKFTSQDGYTMTLTVKELLVDKRYYFPHFNDNKIGDGEGNIAGSSQGAELVEPIIALISVEGSNNPNYMNDLNTLVLMMGQRAVTEQTGNAFVKYLNKIEVLTSEVPKWDSPQANPGSGEVSAGTMIALSTARMDDDKIYYTTDGSTPNLNSPIYNWIAKRWWSARADILGTYNHPIGPINENTTIKAITIGPGKENSDVATFTYTVPVSKPASETSIVAPNEATNYPDQALEKPLQSEPKATLTDVQNHWAQKNINELIASGIAGGYPDSSFRPDNTITRAEFATMLVKAFNLQNQGGKVFADSEQHWAKEYISRATASGVVSGYDAENFGPDKLITREQMAVMISKAAKLVLKAEAMHFADSAGISEWAKEAVLAANQSGIVKGYPDNTIRPQGSATRAEAVTVIVNALTLKEGHHHHHH | soluble
9 | MGSDKIHHHHHHMDVAAEYPVDKPDTQVSVRDVFGIESDLTVPAFTEVSEHVPDRDDAYCFDRDTTLAVLAGFAFNRRVMIQGYHGTGKSTHIEQIASRLNWPCIRVNLDSHVSRIDLVGKDAIVLRDGLQVTEFREGILPWCLQRPIALTFDEYDAGRADVMFVIQRVLEVEGRLTLLDQNKVIRPHPYFRLFATANTVGLGDTTGLYHGTQQINQGQMDRWNIVATLNYLEHDVEVGIALAKRPEYDTPEGRAKINAMVGVADLSRSGFINGDISTVMSPRTVLTWAENATIFGDDAFAFRVTFLNKCDETERPIIAEYYQRCFGKELPESAAFRTAFL | not soluble
10 | MFQIKKAAVLGSGVMGSGIAAHLANIGIPTLLLDIVPPALTKEEEAKGLTLEHKSVRNRFSNTAVQKLLKQKPAPLTVKGNLALIEAGNLEDDLERLADVDWIIEVVVENLDIKKKLFEKVDAVRKPGSIVSSNTSGISVEKMAEGRSDDFQKHFLGTHFFNPPRYLKLLEVIPTKKTDPQVLSFMKLFGEDVLGKGVVIAKDTPNFIGNRIGTYGLLVTLQEMVKRGYSIGEVDSVTGPLIGRPKSATFRTLDVVGLDTFVYVANNVYENVQEKERDVFKVPAFMHDMLDKKWLGSKTGQGFFLKQGKEILELNPETMEYEARKKLKAASIELSKQEKGLSNKLKALVYAKDRAGELLWNIITPTLLYSAKLHKEIADDIVAIDQAMKWGFGWEQGPFEVWDAIGVEKSVQKMEESGAVIPAWVKEMLEKGFTTFYKHDNGDSYYYDNGEYKLIECNKKAISLKQLKAKNGVLKKNSGASLIDLGDGILCLEFHSKSNAIGMDITQMINYAVDEVEKNYKGLVIGNQSKNFCVGANLAMILMEAQDDNYFEIEWVVKNFQDAMMKIKYSSKPVVAAPYGMTLGGGTEVCLPAASIQASSETYMGLVEVGVGLIPGGGGNKELYIKHLNKMANGVEFDLQKVANKVFETVAMAKVLTSGQEAVSHNFLGDKDGISVNGDHLLYDAKQKALALYEAGYKAPIRKKIPVVGETGYATLALGAEAMHLSGYISEYDLHIAKKLAYVIAGGKVPYGTEVDEQYLLDVEREAFISLVSEMKSQARMQHMLVKGKPLRN | not soluble
11 | MAHHHHHHMSPLDACREQYEKDLANQTHCCMLEHVEEENRAANRKVFVRLLRYQQDINTRGTLPFEPDPTDAQKKSKGGNSAAPAYPENLTIRDPRQLKQILPIPDIHKVSDCDLIYRFLIARRMDVDLATNDILSYIGFREKYSLDTILWDREVEAVFNGLDGEELVQQVMGEMKKGATPAPKVKITRPLLQAGWAAWYCGVDKRGHVIFYQRPNPKELAMLEKRWPYIEGQYDCRNPEFHSVTPPYSNLLSRVYLREVEKGRRISRLLNYNQQYIIREGLHVQTTVKPTSTDTFMDNGGGATCLVDVGSIKLSHLTSSKCKKAFKLFRVLSLTGQSFYPENMSRMIIINGGFVFNMLFKLVRPWLDPQTQKKIVLLSATNRATLDELSSDSNLMSQSHETNDSEESDDDGTPVVGTDSERAKYALRDALAEYIHEDFIPSWYGGRLPVVDSPLFYGASPPKSLAENPQFAAACERLRARVVPQLLPDAFIFANAKEREGVGQEEWEAFCSMTERTLFRKQASTQCSSHS | not soluble
12 | MKKMLLATALALLITGCAQQTFTVQNKQTAVAPKETITHHFFVSGIGQKKTVDAAKICGGAENVVKTETQQTFVNGLLGFITLGIYTPLEARVYCSK | soluble
13 | MAHHHHHHMAHVLQKCAHVLGISLSATGVYYAKGKMPYPATSSNEGTSSAESMGGSPGKAAKSNTVSAVKESQAATRKSKAQGNSVATAAVHTPSPPSSTEMNATNLDATSPCSSAAGPVGFFFDVGLHDLPNPPRDFDVTPSALAVDGTHSSANGAVIAVRDFVSHIPPFFVPVTEVVANMPGYTAEHLEVYLNVNSLELVTVAGERYVRLYGSFGDLSLSGSEVSEKRYAHYRPDVALVAAFEAAFEGIYDKWMPLPELLRRVGPDVTAQLPYQGPAAITYFAQMQHRFAFAVREVPTTGGGAAGALSSPQFTTEAAVLLRKPGYSGLEAHSTPTPKSFQALMSLVPGDTQVDIDVVRCQLTSEVRAELSRYYDGLEGFFAAHKPVFFVPPETPTVVMRMRYRLRTQRAKLPLEEQLRIATDARDKARIRSLRRKIAFRDDPSHPLHDPENLAKEVSKHLPRRGFVHLRIFLKRNVPEELLMYMPKRMRCFFNNYPQYFTQFEYQSAGTWCLCRPDQPLPRGVIRQNFSDGDLLRLIAEFLQQRGARAASMVHTNLPFGAQEVIRRRYGGVYFFVTRYPQYFNVVLKTDRQNVKSSAVVHLIQVPSQELSDATMAASAASLNNPNAPSHDDDDHESGDDDDDEDLDDGLD | not soluble
14 | MKVVAVGGGTGLSTLLKGLKNIDSFEITAVVSVTDEGGSSGKLRKELNVPPPGDVRNNIVALAKDEDLLAKLMSYRFSEGSFKGHSLGNLIIAALTKIEGSFSEAIRILERVLAIKGRVLPVSEDHARLVARFEDGEEVIGETNIVRKGGKIVEVRLDRPIDALPEVLEAIERADIIIFGPGSLYTSIITNVLVNGVKDAIKKSKAKKIYVCNLMTQPGETTGYRVSDHVKELERYLEQSVDFVLVNTRKPSEEVLERYRKEGSDFVEIDAENIQNTILAEPFLVEIVDPSDGQRKIRHDSVKLADVIERISRW | soluble
15 | MNNLYPYGAPDSNLYARKQEEYDQQIAEAILAGIKREATAIELYRRLADEAPSEQHQHDIRQALENKQASLTQFTNAYRILTGQQPQLEVDDVSFYRFHEGLQKAYEIEVEGYEEYERSSALTENPHVQHAFWTALNTEYENTTRLYRSLHEEADHRVTDHGPRPFVVNIEDETKRNRAFRRALWTGDHLQVTLMSIQVGEDIGLEIHPHLDQFLRVEEGRGLVQMGHRQDNLHFQEEVFDDYAILIPAGTWHNVRNTGNRPLKLYSIYAPPQHPHGTVHETKAIAMAAEEHHHL | soluble
16 | MDTELMKLDVHVTAWSRTPSSSGFLNSVMISRDRDFEEFIINDRDGSVTSLGSYQNPSRGPDPLIFLDFRNFEPNYVYQLLLSQFHDHVLSEHIADQIGYTFGTCNSPTSTTDLDQESEEEE | soluble
17 | MGHHHHHHSHGGSRTGPVSLQGDPKQAPWSSSQSNSSRKTLFLSLCPPFPTQPQIHLHFTEHRASSHQGGPFKLQICLSSLYSNLLLHCHYREVHHMSGHRTESAGGHLFLPQDLRWKSPGLGVFAVQSVYELARRHNVSPFYSGPP | not soluble
18 | MSHTVAGGGSGDHSHQVRVKAYYRGDIMITHFEPSISFEGLCNEVRDMCSFDNEQLFTMKWIDEEGDPCTVSSQLELEEAFRLYELNKDSELLIHVFPCVPERPGMPCPGEDKSIYRRGARRWRKLYCANGHTFQAKRFNRRAHCAICTDRIWGLGRQGYKCINCKLLVHKKCHKLVTIECGRHSLPQEPVMPMDQSSMHSDHAQTVIPYNPSSHESLDQVGEEKEAMNTRESGKASSSLGLQDFDLLRVIGRGSYAKVLLVRLKKTDRIYAMKVVKKELVNDDEDIDWVQTEKHVFEQASNHPFLVGLHSCFQTESRLFFVIEYVNGGDLMFHMQRQRKLPEEHARFYSAEISLALNYLHERGIIYRDLKLDNVLLDSEGHIKLTDYGMCKEGLRPGDTTSTFCGTPNYIAPEILRGEDYGFSVDWWALGVLMFEMMAGRSPFDIVGSSDNPDQNTEDYLFQVILEKQIRIPRSMSVKAASVLKSFLNKDPKERLGCLPQTGFADIQGHPFFRNVDWDMMEQKQVVPPFKPNISGEFGLDNFDSQFTNERVQLTPDDDDIVRKIDQSEFEGFEYINPLLMSAEECV | not soluble
